Consider 8 molecules from paper PMC7335091, “Mechanistic insights into chromatin targeting by leukemic NUP98-PHF23 fusion” (Nature Communications, 2020).

The chains are these.
B1: PHD finger of PHF23 (aa 338-393), wild type (domain or fragment, human, UniProt Q9BUL5 338-393, looked up)
chain: DLITCYCRKPFAGRPMIECSLCGTWIHLSCAKIKKTNVPDFFYCQKCKELRPEARR
notes: human PHF23, PHD domain, aa 338-393, cloned into pGEX 6p-1; 15N- or 13C,15N-labelled for NMR; also called PHF23PHD; WT PHF23PHD; source: E. coli BL21 (DE3) RIL, purified (glutathione Sepharose 4B, GST cleaved, size exclusion chromatography)

Read-outs that look alike come from different tables or passages of the source. Non-standard residues stand in square brackets, D forms with d. No end group written: not given here. Lys(Me3) = C[N+](C)(C)CCCC[C@H](N)C(=O)O

In data set [1] the target is histone H3K4me3 peptide (Homo sapiens) (UniProt P68431). As to conditions: cited from earlier work.
Data set [2] deals with T1, PHF23 PHD finger (PHF23PHD) (Homo sapiens, UniProt Q9BUL5).
T1 construct: PHD domain (aa 338–393)
T1 sequence (Q9BUL5 338-393): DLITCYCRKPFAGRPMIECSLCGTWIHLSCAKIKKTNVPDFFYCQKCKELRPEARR
The data set can be described thus: 1H, […] HSQC NMR titration; nonreducing SDS-PAGE. It counts as binding.

For data set [3], the target named is PHD finger of PHF23 (aa 338-393), wild type (human) (UniProt Q9BUL5). Description: other fluorescence titration; intrinsic tryptophan fluorescence, 25 °C; 2.0 µM PHF23PHD with increasing peptide, PBS (pH 6.5), 1 mM TCEP, excitation 295 nm; Kd averaged over three experiments.
Data set [4] deals with histone H3K4me3 peptide (Homo sapiens) (UniProt P68431). As to conditions: cited from earlier work. This is another data set of the same source.
Data set [5] has as its target B1. Description: NMR titration; 1H,15N HSQC at 298 K; 0.1 mM 15N-labeled PHD in PBS (pH 6.5), 1 mM TCEP, 8% D2O; histone H3 peptide titrated in; Kd from chemical shift changes against peptide concentration. The settings on record: both partners purified.
Data set [6] deals with the molecule itself. Description: crystal structure; PHF23PHD crystallized in the presence of H3K4me3 peptide; 0.1 M Tris pH 8.65, 25% tert-butanol, 18 °C; 2.9 Å; the peptide is not in the structure.
Data set [7] deals with B1. The data set can be described thus: other fluorescence titration; intrinsic tryptophan fluorescence, 25 °C; 2.0 µM PHF23PHD with increasing peptide, PBS (pH 6.5), 1 mM TCEP, excitation 295 nm; Kd averaged over three experiments. The settings on record: both partners purified.
In data set [8] the target is T2, PHD finger of PHF23 (aa 338-393), L358M cancer-relevant mutant (human, UniProt Q9BUL5 338-393, L358M).
T2 construct: human PHF23, PHD domain, aa 338-393, with the cancer-relevant mutation L358M (Cosmic); also called PHF23PHD L358M; source: E. coli BL21 (DE3) RIL, grown and purified as wild-type protein
T2 sequence (looked up): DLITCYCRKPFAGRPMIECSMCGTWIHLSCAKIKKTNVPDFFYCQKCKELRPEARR
The data set is described as above. The settings on record: both partners purified.

Data set [9] deals with T3, PHD finger of PHF23 (aa 338-393), R345L cancer-relevant mutant (human, UniProt Q9BUL5 338-393, R345L).
T3 construct: human PHF23, PHD domain, aa 338-393, with the cancer-relevant mutation R345L (Cosmic); also called PHF23PHD R345L; source: E. coli BL21 (DE3) RIL, grown and purified as wild-type protein
T3 sequence (looked up): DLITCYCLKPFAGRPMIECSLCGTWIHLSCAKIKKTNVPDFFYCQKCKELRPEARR
The description is as above. As to conditions: both partners purified.

For data set [10], the target named is PHD finger of PHF23 (aa 338-393), R345L cancer-relevant mutant (human, UniProt Q9BUL5 338-393, R345L).
Data set [11] addresses PHD finger of PHF23 (aa 338-393), L358M cancer-relevant mutant (human, UniProt Q9BUL5 338-393, L358M).

As usually defined, the Kd is the free concentration of one partner at which half of the binding sites on the other are occupied at equilibrium, for simple one-to-one binding. Regarding BPTF PHD (from UniProt Q12830), the Kd in data set [1] is 3000 nM. For the molecule `CCN(CC)C(=S)SSC(=S)N(CC)CC` [DS, disulfiram], the “1H,15N HSQC NMR titration; nonreducing SDS-PAGE” value in data set [2] is recorded as “Gradual addition of AD or DS to PHF23PHD induced small but significant CSPs in the protein, indicative of direct interactions”. With histone H3K4me2 peptide, the Kd in data set [3] was 8 µM.

As for KDM5A PHD (from UniProt P29375), the Kd in [4] is 900 nM.

Turning to ARTK(Me)QTARKSTG [histone H3K4me1 peptide], the equilibrium dissociation constant (Kd) in [5] is 0.58 mM.

For the molecule B1, in [6], the binding result was “binds”.

B2: histone H3K4me0 peptide (unmodified H3) (peptide)
chain: ARTKQTARKSTG
modifications: unmodified Lys4. Limits 1-12 taken from the H3K4me3 peptide of the same titration series
B2: the Kd in data set [5] was 1.6 mM.

B3: histone H3K4me3 peptide (aa 1-12 of H3K4me3) (peptide, UniProt P68431 2-13, looked up)
peptide: ART[Lys(Me3)]QTARKSTG
notes: histone H3, residues 1-12, trimethylated on Lys4; source: synthetic peptide (SynPeptide)
As to B3, the Kd came out at 2000 nM in data set [7], 4.3 µM in data set [10] and 2400 nM in data set [11]. The binding result in data set [8] and in data set [9] was “binds” each time.
